{
  "source": "patent US20260217833A1",
  "about": "(APTEVO RESEARCH AND DEVELOPMENT, published 2026)",
  "binders": {"B1": {"name": "CD4001047 (bispecific antibody)", "scFv-Fc-scFv chain": "DIVMTQSHKFMSTSVGDRVSITCKASQDVNTAVAWYQQKPGQSPKLLIYSASYRYTGVPDRFTGSGSGTDFTFTISSVQAEDLAVYYCQQHYSTPWTFGGGTKLEIKGGGGSGGGGSGGGGSGGGGSQVQLQQSGAELAKPGASVKMSCKASGYAFTTYWMHWVKQRPGQGLEWIGYINPTTGYTDYNQKFKDKATLTADKSSSTAYMQLSSLTSEDSAVYYCARWGLPPFAYWGQGTLVTVSAEPKSSDKTHTCPPCPAPPAAAPSVFLFPPKPKDTLMISRTPEVTCVVVDVSHEDPEVKFNWYVDGVEVHNAKTKPREEQYNSTYRVVSVLTVLHQDWLNGKEYKCAVSNKALPAPIEKTISKAKGQPREPQVYTLPPSRDELTKNQVSLTCLVKGFYPSDIAVEWESNGQPENNYKTTPPVLDSDGSFFLYSKLTVDKSRWQQGNVFSCSVMHEALHNHYTQKSLSLSPGGGGSPSEVQLVESGGGLVKPGGSLRLSCAASGFTFSDYGMAWVRQAPGKGLEWVAFITSLAYIIYYADSVKGRFTISRDNAKNSLYLQMNSLRAEDTAVYYCARNYGSSPYYFDYWGQGTLVTVSSGGGGSGGGGSGGGGSGGGGSDIQMTQSPSSLSASVGDRVTITCRASQDINKFLSWYQQKPGKAPKLLIHYTSSLQPGVPSRFSGSGSGTDFTLTISSLQPEDFATYYCLQYDNLYTFGQGTKLEIK", "notes": "also called CD40_2H7 x hFc x PDL_5F9"}, "B2": {"name": "CD4001070 (bispecific antibody)", "Fc-Knob x PDL_5F9": "EPKSSDKTHTCPPCPAPPAAAPSVFLFPPKPKDTLMISRTPEVTCVVVDVSHEDPEVKFNWYVDGVEVHNAKTKPREEQYNSTYRVVSVLTVLHQDWLNGKEYKCAVSNKALPAPIEKTISKAKGQPREPQVYTLPPSRDELTKNQVSLWCLVKGFYPSDIAVEWESNGQPENNYKTTPPVLDSDGSFFLYSKLTVDKSRWQQGNVFSCSVMHEALHNHYTQKSLSLSPGGGGSPSEVQLVESGGGLVKPGGSLRLSCAASGFTFSDYGMAWVRQAPGKGLEWVAFITSLAYIIYYADSVKGRFTISRDNAKNSLYLQMNSLRAEDTAVYYCARNYGSSPYYFDYWGQGTLVTVSSGGGGSGGGGSGGGGSGGGGSDIQMTQSPSSLSASVGDRVTITCRASQDINKFLSWYQQKPGKAPKLLIHYTSSLQPGVPSRFSGSGSGTDFTLTISSLQPEDFATYYCLQYDNLYTFGQGTKLEIK", "CD40_2H7 x Fc-Hole x PDL_5F9": "B1 scFv-Fc-scFv chain with T394S, L396A, Y435V, H463R, Y464F"}, "B3": {"name": "CD4001079 (bispecific antibody)", "Fc-Knob x CD40_2H7": "EPKSSDKTHTCPPCPAPPAAAPSVFLFPPKPKDTLMISRTPEVTCVVVDVSHEDPEVKFNWYVDGVEVHNAKTKPREEQYNSTYRVVSVLTVLHQDWLNGKEYKCAVSNKALPAPIEKTISKAKGQPREPQVYTLPPSRDELTKNQVSLWCLVKGFYPSDIAVEWESNGQPENNYKTTPPVLDSDGSFFLYSKLTVDKSRWQQGNVFSCSVMHEALHNHYTQKSLSLSPGGGGSPSDIVMTQSHKFMSTSVGDRVSITCKASQDVNTAVAWYQQKPGQSPKLLIYSASYRYTGVPDRFTGSGSGTDFTFTISSVQAEDLAVYYCQQHYSTPWTFGGGTKLEIKGGGGSGGGGSGGGGSGGGGSQVQLQQSGAELAKPGASVKMSCKASGYAFTTYWMHWVKQRPGQGLEWIGYINPTTGYTDYNQKFKDKATLTADKSSSTAYMQLSSLTSEDSAVYYCARWGLPPFAYWGQGTLVTVSA", "PDL_5F9 x Fc-Hole x CD40_2H7": "EVQLVESGGGLVKPGGSLRLSCAASGFTFSDYGMAWVRQAPGKGLEWVAFITSLAYIIYYADSVKGRFTISRDNAKNSLYLQMNSLRAEDTAVYYCARNYGSSPYYFDYWGQGTLVTVSSGGGGSGGGGSGGGGSGGGGSDIQMTQSPSSLSASVGDRVTITCRASQDINKFLSWYQQKPGKAPKLLIHYTSSLQPGVPSRFSGSGSGTDFTLTISSLQPEDFATYYCLQYDNLYTFGQGTKLEIKEPKSSDKTHTCPPCPAPPAAAPSVFLFPPKPKDTLMISRTPEVTCVVVDVSHEDPEVKFNWYVDGVEVHNAKTKPREEQYNSTYRVVSVLTVLHQDWLNGKEYKCAVSNKALPAPIEKTISKAKGQPREPQVYTLPPSRDELTKNQVSLSCAVKGFYPSDIAVEWESNGQPENNYKTTPPVLDSDGSFFLVSKLTVDKSRWQQGNVFSCSVMHEALHNRFTQKSLSLSPGGGGSPSDIVMTQSHKFMSTSVGDRVSITCKASQDVNTAVAWYQQKPGQSPKLLIYSASYRYTGVPDRFTGSGSGTDFTFTISSVQAEDLAVYYCQQHYSTPWTFGGGTKLEIKGGGGSGGGGSGGGGSGGGGSQVQLQQSGAELAKPGASVKMSCKASGYAFTTYWMHWVKQRPGQGLEWIGYINPTTGYTDYNQKFKDKATLTADKSSSTAYMQLSSLTSEDSAVYYCARWGLPPFAYWGQGTLVTVSA"}, "B4": {"name": "CD4001184 (Fc fusion)", "scFv": "DIQMTQSPSSVSASVGDRVTITCRSSQSLLFSVNQKNYLAWYQQKPGKAPKLLIYWASTRESGVPDRFSGSGSGTDFTLTISSLQPEDFATYYCQHYYSYPWTFGQGTKVEIKGGGGSGGGGSGGGGSGGGGSQVQLVQSGAEVKKPGSSVKVSCKASGYTFSTSWIEWIRQAPGQGLEWIGSILPGSGSTNYNEKFKGKATFTADTSTSTAYMELSSLRSEDTAVYYCARGDDGSYVRWYFDHWGQGTLVTVSS", "notes": "humanized 1D5 variant; not shown: wild-type human IgG1 Fc and the Fc-to-scFv linker"}, "B5": {"name": "CD4001207 (Fc fusion)", "scFv": "B4 scFv with I181M, N194A, A201V, F203I, T207E", "notes": "humanized 1D5 variant; not shown: wildtype human IgG1 Fc and its linker to the scFv"}, "B6": {"name": "CD4001190 (Fc fusion)", "scFv": "B4 scFv with S25A, T59S, E61Q, S158T", "notes": "humanized 1D5 variant; not shown: wild-type human IgG1 Fc and the Fc-scFv linker"}, "B7": {"name": "CD4001192 (Fc fusion)", "scFv": "B4 scFv with S25A, R60L, D66S, S158T", "notes": "as for B6"}, "B8": {"name": "CD4001206 (Fc fusion)", "scFv": "B4 scFv with I181M, N194A, E195Q, K198Q, K200R, A201V, F203I", "notes": "as for B5"}, "B9": {"name": "CD4001193 (Fc fusion)", "scFv": "B4 scFv with S25A, T59S, R60L, E61Q, D66S, S158T", "notes": "as for B6"}, "B10": {"name": "CD4001199 (Fc fusion)", "scFv": "B4 scFv with I181M, E195Q, K198Q, K200R, A201V, F203I", "notes": "as for B5"}, "B11": {"name": "CD4001194 (Fc fusion)", "scFv": "B4 scFv with E168S, I170V, I181M, S183G, A201V, F203I", "notes": "as for B6"}, "B12": {"name": "CD4001203 (Fc fusion)", "scFv": "B4 scFv with E168S, I170V, I181M, S183G, N194A, A201V, F203I", "notes": "as for B5"}, "B13": {"name": "CD4001196 (Fc fusion)", "scFv": "B4 scFv with E168S, I170V, S183G, E195Q, K198Q, K200R", "notes": "as for B6"}, "B14": {"name": "CD4001183 (Fc fusion)", "scFv": "B4 scFv with R60L, D66S, S158T", "notes": "as for B4"}, "B15": {"name": "CD4001181 (Fc fusion)", "scFv": "B4 scFv with S25A, S158T", "notes": "as for B4"}, "B16": {"name": "CD4001182 (Fc fusion)", "scFv": "B4 scFv with T59S, E61Q, S158T", "notes": "as for B4"}, "B17": {"name": "CD4001197 (Fc fusion)", "scFv": "B4 scFv with E168S, I170V, S183G, T207E", "notes": "as for B5"}, "B18": {"name": "CD4001191 (Fc fusion)", "scFv": "B4 scFv with T59S, R60L, E61Q, D66S, S158T", "notes": "as for B6"}, "B19": {"name": "CD4001205 (Fc fusion)", "scFv": "B4 scFv with E168S, I170V, I181M, S183G, A201V, F203I, T207E", "notes": "as for B5"}, "B20": {"name": "CD4001204 (Fc fusion)", "scFv": "B4 scFv with E168S, I170V, I181M, S183G, E195Q, K198Q, K200R, A201V, F203I", "notes": "as for B5"}, "B21": {"name": "CD4001187 (Fc fusion)", "scFv": "B4 scFv with N194A", "notes": "as for B6"}, "B22": {"name": "CD4001201 (Fc fusion)", "scFv": "B4 scFv with N194A, T207E", "notes": "as for B5"}, "B23": {"name": "CD4001186 (Fc fusion)", "scFv": "B4 scFv with I181M, A201V, F203I", "notes": "as for B4"}, "B24": {"name": "CD4001185 (Fc fusion)", "scFv": "B4 scFv with E168S, I170V, S183G", "notes": "as for B4"}, "B25": {"name": "CD4001195 (Fc fusion)", "scFv": "B4 scFv with E168S, I170V, S183G, N194A", "notes": "as for B6"}},
  "note": "Where a chain is given by its changes, count along the chain named.",
  "data": [
    {"biological_target": "T1, Human PD-L1 full-length (human, UniProt Q9NZQ7 19-290)", "T1 construct": "also called PDL01021; CHOK1SV/huPDL1", "T1 sequence (Q9NZQ7 19-290)": "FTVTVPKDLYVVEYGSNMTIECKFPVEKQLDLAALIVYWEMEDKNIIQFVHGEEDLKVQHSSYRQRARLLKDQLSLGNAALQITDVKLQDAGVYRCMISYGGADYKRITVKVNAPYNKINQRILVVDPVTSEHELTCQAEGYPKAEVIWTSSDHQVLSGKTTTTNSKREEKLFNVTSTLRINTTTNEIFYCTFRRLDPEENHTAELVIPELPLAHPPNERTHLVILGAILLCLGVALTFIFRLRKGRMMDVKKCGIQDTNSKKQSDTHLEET", "experiment": "flow cytometry, CHOK1SV/human PD-L1 cells", "values": [
      {"binder": "B1", "binding result": "binds"},
      {"binder": "B2", "binding result": "binds"},
      {"binder": "B3", "binding result": "binds"}
    ]},
    {"biological_target": "T2, human CD40 full-length (human, UniProt P25942 21-277)", "T2 construct": "Also used for CD40 of Daudi cells, of CD40-expressing HEK293 cells and of the BPS CD40/NFkB HEK293 reporter cells where the row says so; also called CD4001012; CHOK1SV/CD40", "T2 sequence (P25942 21-277)": "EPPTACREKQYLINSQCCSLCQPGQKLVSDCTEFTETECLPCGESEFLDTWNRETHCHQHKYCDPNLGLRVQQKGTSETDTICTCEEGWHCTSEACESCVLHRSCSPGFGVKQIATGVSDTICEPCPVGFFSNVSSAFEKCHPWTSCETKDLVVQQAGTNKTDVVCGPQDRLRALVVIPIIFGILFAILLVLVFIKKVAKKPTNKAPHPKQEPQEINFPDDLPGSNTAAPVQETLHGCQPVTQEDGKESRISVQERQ", "experiment": "flow cytometry, CHOK1SV/human CD40 cells", "values": [
      {"binder": "B4", "binding result": "binds"},
      {"binder": "B5", "binding result": "binds"},
      {"binder": "B6", "binding result": "binds"},
      {"binder": "B7", "binding result": "binds"},
      {"binder": "B8", "binding result": "binds"},
      {"binder": "B9", "binding result": "no binding (tested: 300 nM)"},
      {"binder": "B10", "binding result": "binds"},
      {"binder": "B11", "binding result": "binds"},
      {"binder": "B12", "binding result": "binds"},
      {"binder": "B13", "binding result": "binds"},
      {"binder": "B14", "binding result": "binds"},
      {"binder": "B15", "binding result": "binds"},
      {"binder": "B16", "binding result": "binds"},
      {"binder": "B17", "binding result": "binds"},
      {"binder": "B18", "binding result": "binds"},
      {"binder": "B19", "binding result": "binds"},
      {"binder": "B20", "binding result": "binds"},
      {"binder": "B21", "binding result": "binds"},
      {"binder": "B22", "binding result": "binds"},
      {"binder": "B23", "binding result": "binds"},
      {"binder": "B24", "binding result": "binds"},
      {"binder": "B25", "binding result": "binds"}
    ]}
  ]
}
